From PMC10367348 (Journal of Biomedical Science, 2023) come the findings set out here.

Substitutions are numbered along the chain they refer to. Ends that are not written are not given here.

T1: biotinylated BSA conjugated peptide (influenza A virus, also: biotinylated, BSA conjugated)
T1 peptide: KSLLTEVETPI

B1: scFv JU1 (scFv, V domains shown)
VH: EVQLLESGGGLVQPGGSLRLSCAASGFTFSSYAMSWVRQAPGKGLEWVSRISAQGNQTRYSDSVKGRFTISRDNSKNTLYLQMNSLRAEDTAVYYCAKKSSYFDYWGQGTLVTVSS
VL: DIQMTQSPSSLSASVGDRVTITCRASQSISSYLNWYQQKPGKAPKLLIYKASTLQSGVPSRFSGSGSGTDFTLTISSLQPEDFATYYCQQWRTRPLTFGQGTKVEIK
B2: scFv UU1 (scFv, V domains shown)
VH: B1 VH with R50T, A53M, Q54S, N56K, Q57R, R59Q, S61A, K99R, S100H, S101R
VL: B1 VL with K50R, T53K, W91P, R92G, T93W, L96K
B3: scFv AU1 (scFv, V domains shown)
VH: EVQLLESGGGLVQPGGSLRLSCAASGFTFSSYAMSWVRQAPGKGLEWVSTILQHGQRTLYADSVKGRFTISRDNSKNTLYLQMNSLRAEDTAVYYCAKNRAVFDYWGQGTLVTVSS
VL: B1 VL with K50T, W91Y, T93Q, L96P
notes: also called AU1 scFv
B4: scFv GU1 (scFv, V domains shown)
VH: B3 VH with T50G, L52S, H54L, Q56G, R57Y, L59G, D62G, V102T
VL: B1 VL with K50A, T53H, W91S, R92Q, T93H, R94K

The first test addresses T2, matrix protein 2 [Influenza A virus (A/New York/392/2004(H3N2))] (Influenza A virus (A/New …, UniProt P0DOF5, strain)).
T2 construct: also called M2; M2 protein
Briefly: flow cytometry on cells. The following applies: one partner purified. (In general: A flow cytometer gives signals particle by particle.)
For the molecule B1, the binding result is “binds”.
Still for that read-out and setting: then B2, with “binds”; and B3, with “binds”.
Still for that read-out and setting: the entry for B4 is “binds”.

The next test deals with T1, biotinylated BSA conjugated peptide. Put plainly: BLI.
Conditions: not given
Broadly, the Kd is the equilibrium constant for the complex coming apart. Read a low Kd as higher affinity. In turn, B1 gave a Kd of 3610 nM.
For B2, the Kd stood at 8600 nM.
As for B3, binding was put at a Kd of 940 nM.
Same read-out and setting: the figure for B4 is 350 nM.
